# Reference: patent US20080152587A1 (Amgen, published 2008)
# B1: fully human monoclonal antibody 2.19.2 (ATCC Accession Number PTA-7474) (antibody, V domains shown)
# VH: QVQLVESGGGVVQPGRSLRLSCAASGFTFSSYGMHWVRQAPGKGLEWVAVIWYDGSNKYYADSVKGRFTISRDNSKNTLYLQMNSLRAEDTAVYYCARDQHIVVVTAILDYWGQGTLVTVSS
# VL: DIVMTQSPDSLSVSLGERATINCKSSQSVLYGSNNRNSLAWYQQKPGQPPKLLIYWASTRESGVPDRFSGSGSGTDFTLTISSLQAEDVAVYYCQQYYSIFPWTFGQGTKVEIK
# B2: fully human monoclonal antibody 4.18.1 (ATCC Accession Number PTA-7476) (antibody, V domains shown)
# VH: EVQLVESGGGLIQPGGSLRLSCAASGFTVRNNYMNWVRQAPGKGLEWVSVIYTGGSTYYADSVKGRFTISRDNSRNTLYLQMNSLRAEDTAVYYCAREGAVAGFDYWGQGTLVTVSL
# VL: EIVMTQFPATLSMSPGERATLSCRASQSVSSSLAWYQQTPGQAPRLLIYGASTRSTGFPARFSGIGSGTEFTLTISSLQSEDFAVYYCQQYGNWPLTFGQGTRLEIK
# B3: fully human monoclonal antibody 2.6.1 (ATCC Accession Number PTA-7475) (antibody, V domains shown)
# VH: EVQLVESGGGLIQPGGSLRLSCAASGFTVITNYMNWVRQAPGKGLEWVSIIYTGGSTSYADSVKGRFTVSRDNSKNTLYLHMNSLRVEDTAVYYCAREIAVAGYYGMDVWGQGTTVTVS
# VL: DIQMTQSPSSLSASVGDRVTITCRASQGIRNDLGWYQQKPGKAPKRLIYAASSLQSGVPSRFSGSGSGTEFTLTISSLQPEDFATYYCLQHNSYPLTFGGGTRVEIK
# notes: also called mAb 2.6.1
# Columns and labels:
# [1] = target: T1, lane 1: murine DI/DIII-human DII uPAR chimera (His-tagged); experiment: Western blot of HEK293T culture supernatants with His-tagged uPAR proteins, probed with the antibody
# T1 construct: The sheet prints only the lane number; also called Murine D1/Human D2/Murine D3; murine D1/human D2/MuD3
# T1 uPAR ECD chimera: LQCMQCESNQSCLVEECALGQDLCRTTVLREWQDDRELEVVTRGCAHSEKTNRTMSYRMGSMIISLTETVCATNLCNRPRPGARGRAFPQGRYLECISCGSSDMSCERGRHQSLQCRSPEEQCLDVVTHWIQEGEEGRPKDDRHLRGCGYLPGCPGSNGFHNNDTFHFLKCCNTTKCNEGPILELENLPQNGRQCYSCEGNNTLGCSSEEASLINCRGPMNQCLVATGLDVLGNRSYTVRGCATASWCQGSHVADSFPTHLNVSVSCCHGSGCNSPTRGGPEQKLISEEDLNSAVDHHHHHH
# From the text: (§1) Human-murine uPAR chimeras (His-tagged) were expressed in BEK293T cells and uPAR expression was detected using the anti-human uPAR mAbs as indicated.
# (§2) Chimeric human-murine uPAR comprising murine D1/humanD2D3; murine D1/human D2/MuD3; and human D1D2/murineD3uPAR each with a C-terminal His tag were expressed as secreted proteins in HEK293T cells.
# [2] = target: T2, lane 3: murine DI-human DII/DIII uPAR chimera (His-tagged); experiment: as above
# T2 construct: The sheet prints only the lane number; also called Murine D1/Human D2D3; murine D1/humanD2D3
# T2 uPAR ECD chimera: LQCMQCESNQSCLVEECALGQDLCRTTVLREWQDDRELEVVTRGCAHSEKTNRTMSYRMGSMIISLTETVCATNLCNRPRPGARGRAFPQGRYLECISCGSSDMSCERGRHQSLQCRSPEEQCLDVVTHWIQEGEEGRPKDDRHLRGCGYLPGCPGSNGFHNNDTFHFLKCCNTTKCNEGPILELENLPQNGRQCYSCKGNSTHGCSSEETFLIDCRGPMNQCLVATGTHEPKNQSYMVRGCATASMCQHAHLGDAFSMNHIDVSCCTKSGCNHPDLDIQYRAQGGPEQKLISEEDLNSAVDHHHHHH
# From the text: as §1, §2
# [3] = target: T3, recombinant cynomolgus uPAR ECD with C-terminal His tag (cynomolgus monkey, UniProt Q9GK78 23-303); experiment: KinExA, solution equilibrium, human uPAR beads capture free antibody
# T3 construct: Used as conditioned medium of transfected HEK293 cells
# Method: Kinetic measurements of several of the antibodies were evaluated using the KinExA® method. This method involves solution-based determination of formal affinity measurements at equilibrium. […] The remaining active groups on the beads were blocked with 10 mg/ml BSA in 1 M Tris and stored in the blocking solution as recommended by the manufacturer. KinExA experiments were performed using an automated flow immunoassay system, KinExA 3000, in which beads coupled with human uPAR served as the solid phase.
# The mixture was drawn through the human uPAR-coupled beads to accumulate unbound antibody. The captured antibody was detected using solutions containing a Cy5-conjugated goat anti-human IgG heavy and light chain specific secondary antibody in sample buffer. […] Three replicates of each sample were measured for all equilibrium experiments. The equilibrium dissociation constant (KD) was obtained from nonlinear regression analysis of the data using a one-site homogeneous binding model with an unknown ligand concentration contained within the KinExA software.
# [4] = target: T4, soluble recombinant human uPAR/His6 (R&D Systems, Cat. # 807-UK-100) (human, UniProt Q03405 23-303); experiment: limited antigen ELISA, uPAR coat 20 ng/mL, sample 1:25
# T4 construct: range 1-303; Bought protein; also called soluble uPAR; hu-uPAR
# T4 sequence (Q03405 other isoform, or with tags, fused parts or gaps limits assumed, form in doubt): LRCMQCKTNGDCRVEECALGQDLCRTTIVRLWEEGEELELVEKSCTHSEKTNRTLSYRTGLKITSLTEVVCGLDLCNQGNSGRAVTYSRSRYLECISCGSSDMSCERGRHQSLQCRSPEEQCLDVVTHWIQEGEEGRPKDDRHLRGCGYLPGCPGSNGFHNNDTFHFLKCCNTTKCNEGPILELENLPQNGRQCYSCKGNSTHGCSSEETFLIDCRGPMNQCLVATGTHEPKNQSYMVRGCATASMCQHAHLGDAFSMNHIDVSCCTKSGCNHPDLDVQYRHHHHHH
# Method: (§3) ELISA plates were coated with a lower amount ofuPAR in comparison with the High Antigen Quantitation assay described below (320, 160, 80, 40 and 20 ng/mL). Samples containing one concentration of antibody (Ab) (1:25 dilution) were incubated overnight to allow Ab binding to approach equilibrium.
# [5] = target: T5, human urokinase-type plasminogen activator receptor (uPAR, CD87), cell-bound (human, UniProt Q03405 23-305); experiment: FACS competition, FITC-tc-uPA on L929 cells expressing human uPAR, supernatant 1:2
# T5 construct: whole, on cells; On B300.19 or L929 transfectants (full length cDNA), or native on U937 and PC-3 cells
# T5 sequence (Q03405 23-305): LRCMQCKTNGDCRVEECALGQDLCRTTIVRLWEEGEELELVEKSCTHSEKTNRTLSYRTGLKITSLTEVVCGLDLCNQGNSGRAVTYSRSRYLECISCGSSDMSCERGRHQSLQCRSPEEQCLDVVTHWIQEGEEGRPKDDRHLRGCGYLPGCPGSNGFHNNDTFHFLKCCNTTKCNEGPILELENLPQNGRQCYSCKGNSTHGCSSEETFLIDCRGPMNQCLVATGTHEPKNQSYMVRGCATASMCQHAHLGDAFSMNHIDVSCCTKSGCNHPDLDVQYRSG
# From the text: (§4) Briefly, murine fibroblast L929 cells (ATCC) were transfected to express human uPAR.
# [6] = target: T5, human urokinase-type plasminogen …; experiment: FACS, B300.19 cells expressing human uPAR, anti-human gamma Cy5
# [7] = target: T5, human urokinase-type plasminogen …; experiment: FACS competition with FITC-tc-uPA, line material
# From the text: as §4
# [8] = target: T4, soluble recombinant human uPAR/His6 …; experiment: limited antigen ELISA, uPAR coat 80 ng/mL, sample 1:25
# Method: as §3
# [9] = target: T6, cynomolgus monkey uPAR, cell-bound (cynomolgus monkey, UniProt Q9GK78 23-305); experiment: FACS, GeoMean; cynomolgus uPAR expressed on 293T cells; antibody concentration not given
# T6 construct: whole, on cells; also called cyno-uPAR
# T6 sequence (Q9GK78 23-305): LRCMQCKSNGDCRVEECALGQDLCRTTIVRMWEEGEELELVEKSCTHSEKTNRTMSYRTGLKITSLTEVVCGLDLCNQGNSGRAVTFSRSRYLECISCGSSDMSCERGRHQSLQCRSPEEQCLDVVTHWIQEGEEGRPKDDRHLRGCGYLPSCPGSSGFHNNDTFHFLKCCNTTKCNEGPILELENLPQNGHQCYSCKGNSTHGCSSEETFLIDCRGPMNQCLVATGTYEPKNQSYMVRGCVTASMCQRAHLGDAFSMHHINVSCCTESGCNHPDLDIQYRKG
Binder,binding result [1],binding result [2],Kd [3] [nM],LA at 20 ng/ml [4],uPA/uPAR binding Inhibition % [5] [%],gCy5 Geo Mean Pos Cells [6],"Human uPAR/uPA binding inhibition (%, line material) [7] [%]",LA at 80 ng/ml [8],binding result [9]
B1,no binding,no binding,0.346,0.65,85,445,85,2.65,–
B2,no binding,binds,–,0.27,75,251,75,2.06,binds
B3,no binding,binds,1.09,0.63,80,455,80,3.58,–
